From PMC10288592, “A linker protein from a red-type pyrenoid phase separates with Rubisco via oligomerizing sticker motifs” (Proceedings of the National Academy of Sciences of the …, 2023)

Biological target: T1, PYCO1 (pyrenoid component 1), recombinant, residues 31 to 592 (Phaeodactylum tricornutum)
T1 chain: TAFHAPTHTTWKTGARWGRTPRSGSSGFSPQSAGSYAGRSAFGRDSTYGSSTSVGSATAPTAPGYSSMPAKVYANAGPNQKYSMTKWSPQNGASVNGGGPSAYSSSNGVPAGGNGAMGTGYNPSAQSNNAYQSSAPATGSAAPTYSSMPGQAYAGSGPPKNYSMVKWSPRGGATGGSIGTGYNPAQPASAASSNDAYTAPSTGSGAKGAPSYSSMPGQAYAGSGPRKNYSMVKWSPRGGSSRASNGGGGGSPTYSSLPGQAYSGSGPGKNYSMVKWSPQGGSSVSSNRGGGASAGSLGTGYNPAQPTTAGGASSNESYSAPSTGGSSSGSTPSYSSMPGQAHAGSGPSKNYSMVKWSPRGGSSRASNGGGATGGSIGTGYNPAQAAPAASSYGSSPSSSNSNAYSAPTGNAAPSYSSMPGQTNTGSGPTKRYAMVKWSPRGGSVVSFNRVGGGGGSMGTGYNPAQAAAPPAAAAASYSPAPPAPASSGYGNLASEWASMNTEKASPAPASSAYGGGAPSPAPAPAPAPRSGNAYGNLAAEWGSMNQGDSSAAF
Experiment: co-sedimentation; heterotypic: Rubisco and PYCO1 (or variant) mixed at various ratios, 20 mM Tris-HCl pH 8.0, 150 mM NaCl; condensates sedimented and analysed
Conditions: both partners purified

B1: Phaeodactylum tricornutum Rubisco (L8S8 holoenzyme) (complex)
chain 1: MSQSVSERTRIKSDRYESGVIPYAKMGYWDAAYAVKNTDVLALFRITPQPGVDPVEAAAAVAGESSTATWTVVWTDLLTACDRYRAKAYRVDPVPNTTDQYFAFIAYECDLFEEGSLANLTASIIGNVFGFKAVSALRLEDMRIPHSYLKTFQGPATGVIVERERLNKYGIPLLGATVKPKLGLSGKNYGRVVYEGLKGGLDFLKDDENINSQPFMRWRERFLYCMEGINRASAATGETKGSYLNITAGTMEEVYKRAEYAKTVGSIVVMIDLVMGYTAIQSAAIWARDNDLILHLHRAGNSTYARQKNHGINFRVICKWMRMCGVDHIHAGTVVGKLEGDPLMIKGFYDTLLLTHLNVNLPYGIFFEMTWASLRKCMPVASGGIHCGQMHQLVHYLGDDVVLQFGGGTIGHPDGIQAGATANRVALEAMILARNEGADYFNSDIGPQILRNAAKTCGPLQTALDLWKDISFNYTSTDTSDFSVTPTANV
chain 2: MRLTQGCFSFLPDLTDQQIEKQIAYCITKGWAMNVEWTDDPHPRNSYWELWGLPLFDVKDPASVMFELREARKSCAAGYIRINAFNAAYGTESCVMSFIVNRPSNEPGFYLERQELEGRRIAYTTKSYSVQANPEGGRY
notes: Rubisco large subunit (LSU) of Phaeodactylum tricornutum, Form ID; Rubisco small subunit (SSU) of Phaeodactylum tricornutum, Form ID; For microscopy spiked with 0.3% or 0.6% atto-594-labeled PtRubisco; also called PtRubisco; diatom Rubisco; source: purified directly from diatoms (P. tricornutum); endogenous, soluble algal lysate (immunoprecipitation); copies: 8 + 8
stoichiometry N: 3 Rubisco (L8S8) per PYCO1
